What all share (experiment): SPR
(In general: Surface plasmon resonance follows binding to a sensor surface in real time, without labels.)

The target in test [1] is Recombinant human CypD protein (cyclophilin D) (human) (UniProt P30405).
Test [2] concerns the target oligomeric Aβ40.
The target in test [3] is oligomeric Aβ42.

As usually defined, the Kd is the equilibrium constant for the complex coming apart.

As to Aβ40 (Aβ peptide residues 1-40), the Kd in test [1] is 1700 nM. For the substance Aβ42 (Aβ peptide residues 1-42), the dissociation constant (Kd) in test [1] is 164 nM. Turning to “Recombinant human CypD protein (cyclophilin D) (from UniProt P30405 30-207) (natural protein)”, the dissociation constant (Kd) in test [2] turned out to be 227 nM; in test [3], 4 nM.

(Values after PMC2789841.)
